T1: Human Nidogen-2 (Homo sapiens, UniProt Q14112)
T1 construct: purchased Novus NBP2-10365
T1 sequence (Q14112 31-1375): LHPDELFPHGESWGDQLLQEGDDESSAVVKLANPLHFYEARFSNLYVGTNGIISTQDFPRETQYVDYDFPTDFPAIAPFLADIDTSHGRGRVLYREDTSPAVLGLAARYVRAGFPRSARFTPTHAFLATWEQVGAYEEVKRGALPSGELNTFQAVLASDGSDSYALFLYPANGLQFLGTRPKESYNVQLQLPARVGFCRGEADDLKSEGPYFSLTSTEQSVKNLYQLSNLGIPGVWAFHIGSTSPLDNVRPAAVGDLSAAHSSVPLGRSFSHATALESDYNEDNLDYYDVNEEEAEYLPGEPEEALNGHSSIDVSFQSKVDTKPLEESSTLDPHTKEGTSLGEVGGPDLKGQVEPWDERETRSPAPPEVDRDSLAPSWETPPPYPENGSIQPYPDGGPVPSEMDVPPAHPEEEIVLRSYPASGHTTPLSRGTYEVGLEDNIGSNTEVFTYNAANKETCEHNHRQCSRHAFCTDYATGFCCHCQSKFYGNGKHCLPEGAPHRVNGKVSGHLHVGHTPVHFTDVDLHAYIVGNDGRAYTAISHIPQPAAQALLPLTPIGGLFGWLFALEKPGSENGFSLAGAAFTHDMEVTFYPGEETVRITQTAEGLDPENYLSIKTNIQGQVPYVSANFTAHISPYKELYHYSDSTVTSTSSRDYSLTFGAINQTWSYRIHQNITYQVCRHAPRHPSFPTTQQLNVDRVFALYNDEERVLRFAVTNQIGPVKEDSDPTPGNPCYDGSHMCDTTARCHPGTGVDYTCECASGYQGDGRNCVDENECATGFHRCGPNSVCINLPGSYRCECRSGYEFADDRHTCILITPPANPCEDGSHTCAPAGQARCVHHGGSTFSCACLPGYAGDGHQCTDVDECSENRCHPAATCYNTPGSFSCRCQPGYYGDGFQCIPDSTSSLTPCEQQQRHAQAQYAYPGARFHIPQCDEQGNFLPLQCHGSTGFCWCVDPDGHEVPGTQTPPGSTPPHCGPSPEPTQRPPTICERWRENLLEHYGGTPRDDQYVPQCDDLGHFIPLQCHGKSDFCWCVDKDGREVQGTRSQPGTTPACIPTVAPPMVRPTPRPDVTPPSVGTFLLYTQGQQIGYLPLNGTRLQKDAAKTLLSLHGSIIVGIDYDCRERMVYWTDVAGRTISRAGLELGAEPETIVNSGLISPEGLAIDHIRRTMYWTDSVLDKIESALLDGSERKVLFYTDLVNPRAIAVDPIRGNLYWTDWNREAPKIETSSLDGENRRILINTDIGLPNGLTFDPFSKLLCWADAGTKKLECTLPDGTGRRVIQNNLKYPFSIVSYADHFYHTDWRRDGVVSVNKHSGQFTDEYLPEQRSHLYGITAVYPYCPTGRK


Legend:
Human Nidogen-2 = target: T1, Human Nidogen-2; test: Phage display library screening (Example 1, Power BI analysis), binding to Human Nidogen-2; details: R3 Nidogen-2, NextGen sequencing count of phage sequences distinct for this target
From the text: Phage display library screens were used to identify peptides that bind to target proteins that are expressed in human nerves and could therefore be useful for systemic in-vivo labeling of nerves during fluorescence assisted surgery. Specifically, m13 phage libraries expressing 7 or 12 random amino acid peptides, or a cyclic peptide CX7C, on the N-terminus of the minor coat protein pIII (New England Biolabs) were processed through multiple rounds of selection for binding to target proteins expressed in peripheral nerve (Table 1).
The library was processed through up to 4 binding and wash cycles. For selection, phage libraries were incubated for up to 24 hours at 4° C. in 96 well plates that had been coated with one of the target proteins. Plates were then washed with PBS and phage were eluted using 0.2M glycine pH 2.0. Phage supernatants where then neutralized with Tris pH 9.0 prior to plating on TG1 bacteria and LB agar plates. Colonies were counted to determine titer followed by DNA preparation of pools of phage and NextGen sequencing. After rounds of selection, phage were pooled and amplified for iterative selection. Phage that were bound at each round were sequenced. NextGen sequencing of pools after 2, 3 and 4 rounds of selection was used to isolate candidate sequences that were analyzed further to identify those that specifically bound each unique target protein.
DNA sequences were trimmed of all vector amino acids and imported as a peptide dataset into Power BI. Power BI was used to identify phage display sequences for specific columns (corresponding to each target protein) in order to identify sequences that were distinct for each protein target. The Power BI code evaluated each individual sequence for each protein target against the sequences present in other protein targets in a test for uniqueness. Using the distinct flag, the Power BI code generated a filtered peptide dataset that excluded any peptide sequence that occur in more than one column which identified a specific protein target. This method therefore identified candidate peptide sequences showing selective binding to an individual target protein. Unique sequences in each column were sorted by individual counts such that the most selected sequences appeared at the top of the column.

Human Nidogen-2 (human) = Human Nidogen-2 (human) (UniProt Q14112); test: phage display R3, NGS count
[1] = target: T2, Human Myelin Basic Protein (Homo sapiens, UniProt P02686); test: phage display, NGS count
[2] = target: T2, Human Myelin Basic Protein; test: phage display R3, NGS count

T2 sequence (P02686 135-304 limits assumed): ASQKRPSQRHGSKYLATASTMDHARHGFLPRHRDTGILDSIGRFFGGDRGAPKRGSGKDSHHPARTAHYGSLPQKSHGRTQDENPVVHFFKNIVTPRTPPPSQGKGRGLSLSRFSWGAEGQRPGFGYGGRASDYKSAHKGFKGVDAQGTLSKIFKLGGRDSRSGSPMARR

Molecule	Count (Human Nidogen-2)	other results
GYWRNAL (R3 Nidogen-2-binding peptide)	11	–
ACTVHKWDNC (R3 Nidogen-2-binding peptide)	11	–
GYWRNAL (peptide)	–	Count (Human Nidogen-2 (human)): 11
ACEPRSLANC (R3 Nidogen-2-binding peptide)	11	–
KAIHPMRG (peptide)	–	Count (Human Nidogen-2 (human)): 11
KAIHPMRG (R3 Nidogen-2-binding peptide)	11	–
ACPENKSKHC (R3 Nidogen-2-binding peptide)	13	–
ACGEGEADVC (R3 Nidogen-2-binding peptide)	26	–
EHGYYKV	–	Count [1]: 17; Count [2]: 16
LPMRILT	–	Count [1]: 16; Count [2]: 16

Reference: patent publication US20240207421A1, “NERVE TARGETING PEPTIDES AND METHODS OF USE” (ALUME BIOSCIENCES, INC., priority 2020, published 2024)
